The text below walks through data of paper PMC7366381.

Substrate in this series: O=CO
The experiment in a line: purified protein. The following applies: 1 mM benzyl viologen, pH 7.5, 25 °C, anaerobic, buffer 50 mM phosphate or 25 mM MES/TAPS/HEPES/K acetate (Figure 3 legend).

B1: EcFDH-H (FDH) (Escherichia coli K-12) (protein)
chain: MKKVVTVCPYCASGCKINLVVDNGKIVRAEAAQGKTNQGTLCLKGYYGWDFINDTQILTPRLKTPMIRRQRGGKLEPVSWDEALNYVAERLSAIKEKYGPDAIQTTGSSRGTGNETNYVMQKFARAVIGTNNVDCCARVUHGPSVAGLHQSVGNGAMSNAINEIDNTDLVFVFGYNPADSHPIVANHVINAKRNGAKIIVCDPRKIETARIADMHIALKNGSNIALLNAMGHVIIEENLYDKAFVASRTEGFEEYRKIVEGYTPESVEDITGVSASEIRQAARMYAQAKSAAILWGMGVTQFYQGVETVRSLTSLAMLTGNLGKPHAGVNPVRGQNNVQGACDMGALPDTYPGYQYVKDPANREKFAKAWGVESLPAHTGYRISELPHRAAHGEVRAAYIMGEDPLQTDAELSAVRKAFEDLELVIVQDIFMTKTASAADVILPSTSWGEHEGVFTAADRGFQRFFKAVEPKWDLKTDWQIISEIATRMGYPMHYNNTQEIWDELRHLCPDFYGATYEKMGELGFIQWPCRDTSDADQGTSYLFKEKFDTPNGLAQFFTCDWVAPIDKLTDEYPMVLSTVREVGHYSCRSMTGNCAALAALADEPGYAQINTEDAKRLGIEDEALVWVHSRKGKIITRAQVSDRPNKGAIYMTYQWWIGACNELVTENLSPITKTPEYKYCAVRVEPIADQRAAEQYVIDEYNKLKTRLREAALA
Consider B1, for which the Km – broadly, the concentration of substrate that gives half-maximal velocity – runs as follows: (labelled compound) 158 ± 8 µM; (two highest formate points neglected in fit) 58 ± 8 µM.
